Experimental data taken from patent US20250215095.

Key:
[1] = target: T1, internally quenched peptide probe with CM AWGLSGRS (SEQ ID NO: 686)
T1 chain: SAWGLSGRSGKR

[2] = target: T2, internally quenched peptide probe with CM LSGKSPWGL (SEQ ID NO: 178)
T2 chain: SLSGKSPWGLGKR

[3] = target: T3, internally quenched peptide probe with CM LSGRSPAGL (SEQ ID NO: 694)
T3 chain: SLSGRSPAGLGKR

[4] = target: T4, internally quenched peptide probe with CM LSGRSPWGL (SEQ ID NO: 177)
T4 chain: SLSGRSPWGLGKR

[5] = target: T5, internally quenched peptide probe with CM PAGLSGRS (SEQ ID NO: 687)
T5 chain: SPAGLSGRSGKR

[6] = target: T6, internally quenched peptide probe with CM PWALSGRS (SEQ ID NO: 688)
T6 chain: SPWALSGRSGKR

[7] = target: T7, internally quenched peptide probe with CM PWGASGRS (SEQ ID NO: 689)
T7 chain: SPWGASGRSGKR

[8] = target: T8, internally quenched peptide probe with CM PWGLAGRS (SEQ ID NO: 690)
T8 chain: SPWGLAGRSGKR

[9] = target: internally quenched peptide probe with CM PWGLRS (SEQ ID NO: 48)
[10] = target: T9, internally quenched peptide probe with CM PWGLSARS (SEQ ID NO: 691)
T9 chain: SPWGLSARSGKR

[11] = target: T10, internally quenched peptide probe with CM PWGLSG (SEQ ID NO: 684)
T10 chain: SPWGLSGGGSKR

[12] = target: T11, internally quenched peptide probe with CM PWGLSGAS (SEQ ID NO: 692)
T11 chain: SPWGLSGASGKR

[13] = target: T12, internally quenched peptide probe with CM PWGLSGKS (SEQ ID NO: 150)
T12 chain: SPWGLSGKSGKR

[14] = target: T13, internally quenched peptide probe with CM PWGLSGR (SEQ ID NO: 163)
T13 chain: SPWGLSGRGSKR

[15] = target: T14, internally quenched peptide probe with CM PWGLSGRA (SEQ ID NO: 693)
T14 chain: SPWGLSGRAGKR

[16] = target: T15, internally quenched peptide probe with CM PWGLSGRS (SEQ ID NO: 12)
T15 chain: SPWGLSGRSGKR

[17] = target: internally quenched peptide probe with CM RSPWGL (SEQ ID NO: 90)
[18] = target: T16, internally quenched peptide probe with CM WGLSGRS (SEQ ID NO: 685)
T16 chain: GSWGLSGRSGKR

B1: membrane type serine protease 1 (MT-SP1) (protein)
chain: VVGGTDADEGEWPWQVSLHALGQGHICGASLISPNWLVSAAHCYIDDRGFRYSDPTQWTAFLGLHDQSQRSAPGVQERRLKRIISHPFFNDFTFDYDIALLELEKPAEYSSMVRPICLPDASHVFPAGKAIWVTGWGHTQYGGTGALILQKGEIRVINQTTCENLLPQQITPRMMCVGFLSGGVDSCQGDSGGPLSSVEADGRIFQAGVVSWGDGCAQRNKPGVYTRLPLFRDWIKENTGV
Which results are given for B1?
Probe Cleavage (pM/s) [1]: 17000 pM/s; Probe Cleavage (pM/s) [2]: 595 pM/s; Probe Cleavage (pM/s) [3]: 1520 pM/s; Probe Cleavage (pM/s) [4]: 812 pM/s; Probe Cleavage (pM/s) [5]: 16500 pM/s; Probe Cleavage (pM/s) [6]: 15300 pM/s; Probe Cleavage (pM/s) [7]: 18000 pM/s; Probe Cleavage (pM/s) [8]: 15800 pM/s; Probe Cleavage (kcat/KM (M^-1 s^-1)) [9]: 31000 M⁻¹ s⁻¹; Probe Cleavage (pM/s) [9]: 1230 pM/s; Probe Cleavage (pM/s) [10]: 13100 pM/s; Probe Cleavage (pM/s) [11]: 5.1 pM/s; Probe Cleavage (pM/s) [12]: 13 pM/s; Probe Cleavage (kcat/KM (M^-1 s^-1)) [13]: 80000 M⁻¹ s⁻¹; Probe Cleavage (pM/s) [13]: 2330 pM/s; Probe Cleavage (pM/s) [14]: 1290 pM/s; Probe Cleavage (pM/s) [15]: 7620 pM/s; Probe Cleavage (kcat/KM (M^-1 s^-1)) [16]: 150000 M⁻¹ s⁻¹; Probe Cleavage (pM/s) [16]: 7810 pM/s; Probe Cleavage (kcat/KM (M^-1 s^-1)) [17]: 48000 M⁻¹ s⁻¹; Probe Cleavage (pM/s) [17]: 2390 pM/s; Probe Cleavage (pM/s) [18]: 10600 pM/s

B2: matrix metalloprotease 2 (MMP2) (protein)
chain: YNFFPRKPKWDKNQITYRIIGYTPDLDPETVDDAFARAFQVWSDVTPLRFSRIHDGEADIMINFGRWEHGDGYPFDGKDGLLAHAFAPGTGVGGDSHFDDDELWTLGEGQVVRVKYGNADGEYCKFPFLFNGKEYNSCTDTGRSDGFLWCSTTYNFEKDGKYGFCPHEALFTMGGNAEGQPCKFPFRFQGTSYDSCTTEGRTDGYRWCGTTEDYDRDKKYGFCPETAMSTVGGNSEGAPCVFPFTFLGNKYESCTSAGRSDGKMWCATTANYDDDRKWGFCPDQGYSLFLVAAHEFGHAMGLEHSQDPGALMAPIYTYTKNFRLSQDDIKGIQELYGASPDIDLGTGPTPTLGPVTPEICKQDIVFDGIAQIRGEIFFFKDRFIWRTVTPRDKPMGPLLVATFWPELPEKIDAVYEAPQEEKAVFFAGNEYWIYSASTLERGYPKPLTSLGLPPDVQRVDAAFNWSKNKKTYIFAGDKFWRYNEVKKKMDPGFPKLIADAWNAIPDNLDAVVDLQGGGHSYFFKGAYYLKLENQSLKSVKFGSIKSDWLGC
Which results are given for B2?
Probe Cleavage (pM/s) [1]: 816 pM/s; Probe Cleavage (pM/s) [2]: 37.1 pM/s; Probe Cleavage (pM/s) [3]: 2080 pM/s; Probe Cleavage (pM/s) [4]: 48.9 pM/s; Probe Cleavage (pM/s) [5]: Above the limit of quantification; Probe Cleavage (pM/s) [6]: 4890 pM/s; Probe Cleavage (pM/s) [7]: 202 pM/s; Probe Cleavage (pM/s) [8]: 4870 pM/s; Probe Cleavage (kcat/KM (M^-1 s^-1)) [9]: 140000 M⁻¹ s⁻¹; Probe Cleavage (pM/s) [9]: 3800 pM/s; Probe Cleavage (pM/s) [10]: 9580 pM/s; Probe Cleavage (pM/s) [11]: 3100 pM/s; Probe Cleavage (pM/s) [12]: 4370 pM/s; Probe Cleavage (kcat/KM (M^-1 s^-1)) [13]: 59000 M⁻¹ s⁻¹; Probe Cleavage (pM/s) [13]: 1620 pM/s; Probe Cleavage (pM/s) [14]: 6540 pM/s; Probe Cleavage (pM/s) [15]: 6100 pM/s; Probe Cleavage (kcat/KM (M^-1 s^-1)) [16]: 78000 M⁻¹ s⁻¹; Probe Cleavage (pM/s) [16]: 2920 pM/s; Probe Cleavage (kcat/KM (M^-1 s^-1)) [17]: 260000 M⁻¹ s⁻¹; Probe Cleavage (pM/s) [17]: 11700 pM/s; Probe Cleavage (pM/s) [18]: 66.4 pM/s
